Residue numbers refer to the chain shown, from its start.
B1: humanised 9-8F2-B11 (VH3VL3) (antibody, V domains shown)
VH: QVQLVQSGAEVKKPGASVKVSCKASGFNIKETYVHWVRQAPGQGLEWMGRIDPAIGDSEYAQKFQGRVTMTRDTSISTAYMELSRLRSDDTAVYYCARTWGPFFDFWGQGTLVTVSS
VL: DIVMTQTPLSLSVTPGQPASISCKSSQSLLHSHGNTFLHWYLQKPGQSPQVLIYKVSSRFSGVPDRFSGSGSGTDFTLKISRVEAEDVGVYYCSQSTHVPYTFGQGTKLEIK
notes: also called 9-8F2-B11 humanised
B2: 9-8F2-B11 (mouse) (antibody, V domains shown)
VH: EVQLQQSGAELVKPGASVKLSCTASGFNIKETYVHWVKQRPEQGLEWIGRIDPAIGDSEYDPKFQGKATVTADTSSNTAYLQLSRLTSEDTAVYYCARTWGPFFDFWGQGTTLTVSS
VL: DVVMTQTPLSLPVSLGDQASISCRSSQSLVHSHGNTFLHWYLQKPGQSPKVLIYKVSSRFSGVPDRFSGSGAGTDFTLKISRVEAEDLGVYFCSQSTHVPYTFGGGTKLEIK
B3: 9-2H7-D7 (mouse) (antibody, V domains shown)
VH: EVQLQQSGPELVKPGASVTISCKTSGYTFTEYTMYWVKQSHGKSLEWIGGINPYIGDTSYNQNFKGKATLTVDKSSSTAYMELRSLTSEDSAVYYCARDGYPDYSAMDFWGQGTSVTVSS
VL: DIVMSQSPSSLAVSVGEKVTMNCKSSQNLLYSSNQKNYLAWYQQKPGQSPKLLIYWASTRESGVPDRFTGSGSGTDFTLTISSVKAEDLAVYSCQQYYTYPWTFGGGTKLEIK
B4: 9-7A4-C2 (mouse) (antibody, V domains shown)
VH: EVQLQQSGPELVKPGASVKISCKTSGYTFTEYTMYWVKQSHGKSLEWIGGINPNNGDSSYIQKFKGKATLTVDESSSTAYMELRSLTSEDSAVYYCARDGYPNSYAMDYWGQGTSVTVSS
VL: B3 VL with E17D, N22S, N28S, S33T, S82G, K85R, A86P, S93Y, T99S
B5: 9-2H7-D7 chimera (antibody, V domains shown)
VH: B3 VH
VL: B3 VL

Target: SARS-CoV-2 spike, variant N501Y (B.1.1.7, British) (on virus or pseudovirus) (SARS-CoV-2, UniProt P0DTC2 14-1273)
Assay: cell-based or functional assay

B1 and B2 are within 1.5-fold of each other in “IC50 (ng/ml), pseudovirus neutralisation, British B1.1.7” value (shortened to “IC50 (ng/ml) … British B1.1.7”): 11 ng/mL for the first, 7.7 ng/mL for the second.

Going from B3 to B4, the “IC50 (ng/ml) … British B1.1.7” value falls from 40 ng/mL to 18 ng/mL (2.2-fold).

With B5 the “IC50 (ng/ml) … British B1.1.7” value was 11 ng/mL.

Target: SARS-CoV-2 spike, African variant B.1.351 (on pseudovirus) (SARS-CoV-2)
Assay: cell-based or functional assay

Compared with B1, B4 is 600-fold lower in “IC50 (ng/ml), pseudovirus neutralisation, African B1.1.351” value: 12000 ng/mL for the first, 20 ng/mL for the second.

B5 was tested, and the “IC50 (ng/ml), pseudovirus neutralisation, African B1.1.351” value was 21 ng/mL.

Source: patent publication US20240382586A1 (TAKIS S R L, published 2024)
